The supplement of paper PMC11246515
± gives the standard deviation of the averaged measurements.

Assay: total protein half-life in vivo (active degradation + dilution); higher = more stable protein
[1] = E. coli NCM3722 delta-clpP delta-lon delta-hslV, growth: N-lim chemostat, doubling time 6 h
[2] = E. coli NCM3722 delta-clpP, growth: N-lim chemostat, doubling time 6 h
[3] = E. coli NCM3722 delta-hslV, growth: N-lim chemostat, doubling time 6 h
[4] = E. coli NCM3722 delta-lon, growth: N-lim chemostat, doubling time 6 h
[5] = E. coli NCM3722 delta-smpB, growth: N-lim chemostat, doubling time 6 h
[6] = wild type E. coli NCM3722, growth: C-lim chemostat, doubling time 3 h
[7] = wild type E. coli NCM3722, growth: C-lim chemostat, doubling time 6 h
[8] = wild type E. coli NCM3722, growth: C-lim chemostat, doubling time 12 h
[9] = wild type E. coli NCM3722, growth: N-lim chemostat, doubling time 6 h
[10] = wild type E. coli NCM3722, growth: N-lim chemostat, doubling time 12 h
[11] = wild type E. coli NCM3722, growth: P-lim chemostat, doubling time 6 h
[12] = wild type E. coli NCM3722, growth: P-lim chemostat, doubling time 12 h

MTRKQATIAVRSGLNDDEQYGCVVPPIHLSSTYNFTGFNEPRAHDYSRRGNPTRDVVQRALAELEGGAGAVLTNTGMSAIHLVTTVFLKPGDLLVAPHDCYGGSYRLFDSLAKRGCYRVLFVDQGDEQALRAALAEKPKLVLVESPSNPLLRVVDIAKICHLAREVGAVSVVDNTFLSPALQNPLALGADLVLHSCTKYLNGHSDVVAGVVIAKDPDVVTELAWWANNIGVTGGAFDSYLLLRGLRTLVPRMELAQRNAQAIVKYLQTQPLVKKLYHPSLPENQGHEIAARQQKGFGAMLSFELDGDEQTLRRFLGGLSLFTLAESLGGVESLISHAATMTHAGMAPEARAAAGISETLLRISTGIEDGEDLIADLENGFRAANKG
total protein half-life in vivo [1]: 4.37 ± 0.79 h | total protein half-life in vivo [2]: 4.07 ± 0.43 h | total protein half-life in vivo [3]: 3.31 ± 0.36 h | total protein half-life in vivo [4]: 4.53 ± 0.59 h | total protein half-life in vivo [5]: 3.95 ± 0.28 h | total protein half-life in vivo [6]: 3.1 ± 0.16 h | total protein half-life in vivo [7]: 4.98 ± 0.61 h | total protein half-life in vivo [8]: 10 ± 0.44 h | total protein half-life in vivo [9]: 3.56 ± 0.17 h | total protein half-life in vivo [10]: 5.84 ± 0.7 h | total protein half-life in vivo [11]: 5.83 ± 0.5 h | total protein half-life in vivo [12]: 11.7 ± 1.1 h

MLKVEMLSTGDEVLHGQIVDTNAAWLADFFFHQGLPLSRRNTVGDNLDDLVTILRERSQHADVLIVNGGLGPTSDDLSALAAATAKGEGLVLHEAWLKEMERYFHERGRVMAPSNRKQAELPASAEFINNPVGTACGFAVQLNRCLMFFTPGVPSEFKVMVEHEILPRLRERFSLPQPPVCLRLTTFGRSESDLAQSLDTLQLPPGVTMGYRSSMPIIELKLTGPASEQQAMEKLWLDVKRVAGQSVIFEGTEGLPAQISRELQNRQFSLTLSEQFTGGLLALQLSRAGAPLLACEVVPSQEETLAQTAHWITERRANHFAGLALAVSGFENEHLNFALATPDGTFALRVRFSTTRYSLAIRQEVCAMMALNMLRRWLNGQDIASEHGWIEVVESMTLSV
total protein half-life in vivo [1]: 4.98 ± 0.18 h | total protein half-life in vivo [2]: 4.36 ± 0.044 h | total protein half-life in vivo [3]: 4.01 ± 0.17 h | total protein half-life in vivo [4]: 4.79 ± 0.35 h | total protein half-life in vivo [5]: 4.32 ± 0.093 h | total protein half-life in vivo [6]: 3.098 ± 0.027 h | total protein half-life in vivo [7]: 5.27 ± 0.91 h | total protein half-life in vivo [8]: 9.19 ± 2.1 h | total protein half-life in vivo [9]: 3.94 ± 0.2 h | total protein half-life in vivo [10]: 6.9 ± 0.57 h | total protein half-life in vivo [11]: 6.25 ± 0.51 h | total protein half-life in vivo [12]: 11.2 ± 0.81 h

MLYKGDTLYLDWLEDGIAELVFDAPGSVNKLDTATVASLGEAIGVLEQQSDLKGLLLRSNKAAFIVGADITEFLSLFLVPEEQLSQWLHFANSVFNRLEDLPVPTIAAVNGYALGGGCECVLATDYRLATPDLRIGLPETKLGIMPGFGGSVRMPRMLGADSALEIIAAGKDVGADQALKIGLVDGVVKAEKLVEGAKAVLRQAINGDLDWKAKRQPKLEPLKLSKIEATMSFTIAKGMVAQTAGKHYPAPITAVKTIEAAARFGREEALNLENKSFVPLAHTNEARALVGIFLNDQYVKGKAKKLTKDVETPKQAAVLGAGIMGGGIAYQSAWKGVPVVMKDINDKSLTLGMTEAAKLLNKQLERGKIDGLKLAGVISTIHPTLDYAGFDRVDIVVEAVVENPKVKKAVLAETEQKVRQDTVLASNTSTIPISELANALERPENFCGMHFFNPVHRMPLVEIIRGEKSSDETIAKVVAWASKMGKTPIVVNDCPGFFVNRVLFPYFAGFSQLLRDGADFRKIDKVMEKQFGWPMGPAYLLDVVGIDTAHHAQAVMAAGFPQRMQKDYRDAIDALFDANRFGQKNGLGFWRYKEDSKGKPKKEEDAAVEDLLAEVSQPKRDFSEEEIIARMMIPMVNEVVRCLEEGIIATPAEADMALVYGLGFPPFHGGAFRWLDTLGSAKYLDMAQQYQHLGPLYEVPEGLRNKARHNEPYYPPVEPARPVGDLKTA
total protein half-life in vivo [1]: 4.12 ± 0.27 h | total protein half-life in vivo [2]: 3.24 ± 0.056 h | total protein half-life in vivo [3]: 3.02 ± 0.12 h | total protein half-life in vivo [4]: 3.8 ± 0.82 h | total protein half-life in vivo [5]: 3.27 ± 0.31 h | total protein half-life in vivo [6]: 2.93 ± 0.14 h | total protein half-life in vivo [7]: 4.89 ± 0.061 h | total protein half-life in vivo [8]: 8.047 ± 0.056 h | total protein half-life in vivo [9]: 3.34 ± 0.46 h | total protein half-life in vivo [10]: 4.71 ± 0.23 h | total protein half-life in vivo [11]: 5.3 ± 0.11 h | total protein half-life in vivo [12]: 9.82 ± 0.77 h

MSYQPQTEAATSRFLNVEEAGKTLRIHFNDCGQGDETVVLLHGSGPGATGWANFSRNIDPLVEAGYRVILLDCPGWGKSDSVVNSGSRSDLNARILKSVVDQLDIAKIHLLGNSMGGHSSVAFTLKWPERVGKLVLMGGGTGGMSLFTPMPTEGIKRLNQLYRQPTIENLKLMMDIFVFDTSDLTDALFEARLNNMLSRRDHLENFVKSLEANPKQFPDFGPRLAEIKAQTLIVWGRNDRFVPMDAGLRLLSGIAGSELHIFRDCGHWAQWEHADAFNQLVLNFLARP
total protein half-life in vivo [1]: 5.3 ± 0.56 h | total protein half-life in vivo [2]: 2.05 ± 0.77 h | total protein half-life in vivo [3]: 2.34 ± 0.87 h | total protein half-life in vivo [4]: 2.71 h | total protein half-life in vivo [5]: 2.32 ± 0.21 h | total protein half-life in vivo [6]: 1.42 ± 0.3 h | total protein half-life in vivo [7]: 2.67 ± 0.065 h | total protein half-life in vivo [8]: 4.07 h | total protein half-life in vivo [9]: 1.93 h | total protein half-life in vivo [10]: 3.13 h | total protein half-life in vivo [11]: 3.21 h | total protein half-life in vivo [12]: 5.69 ± 1.3 h

MKIISFVLPCLLVLAGCSTPSQPEAPKPPQIGMANPASVYCQQKGGTLIPVQTAQGVSNNCKLPGGETIDEWALWRRDHPAGEK
total protein half-life in vivo [2]: > 8 h | total protein half-life in vivo [4]: 6.51 h | total protein half-life in vivo [5]: 5.85 h | total protein half-life in vivo [6]: 2.68 h | total protein half-life in vivo [8]: 15.8 ± 0.2 h | total protein half-life in vivo [10]: 14.4 ± 0.2 h | total protein half-life in vivo [11]: 6.22 h
